Test results: patent US20060257938A1, “Method of screening for drugs that block ligand binding to a lipid binding protein” (priority 2005, published 2006)
Where a chain is given by its changes, count along the chain named.

B1: 14I 72G 117V (protein, listed as Rattus norvegicus)
chain: AFDGTWKVDRNENIEKFMEKMGINVVKRKLGAHDNLKLTITQEGNKFTVKESSNFRNIDVVFELGVDFAYSGADGTELTGTWTMEGNKLVGKFKRVDNGKELIAVREISGNELIQTVTYEGVEAKRIFKKE
modifications: PEPTIDE (1)...(131) wild-type rat intestinal fatty acid binding protein
B2: 78A, 72A (protein, listed as Rattus norvegicus)
chain: B1 chain with I14Y, G72A, L78A, V117Y
modifications: PEPTIDE (1)...(131) wild-type rat intestinal fatty acid binding protein
B3: 106M, 72A (protein, listed as Rattus norvegicus)
chain: B1 chain with I14Y, G72A, R106M, V117Y
modifications: PEPTIDE (1)...(131) wild-type rat intestinal fatty acid binding protein
B4: 14L 72G 117I (protein, listed as Rattus norvegicus)
chain: B1 chain with I14L, V117I
modifications: PEPTIDE (1)...(131) wild-type rat intestinal fatty acid binding protein
B5: 78I, 72A (protein, listed as Rattus norvegicus)
chain: B1 chain with I14Y, G72A, L78I, V117Y
modifications: PEPTIDE (1)...(131) wild-type rat intestinal fatty acid binding protein
B6: 23L, 72A (protein, listed as Rattus norvegicus)
chain: B1 chain with I14Y, I23L, G72A, V117Y
modifications: PEPTIDE (1)...(131) wild-type rat intestinal fatty acid binding protein
B7: 104Y, 72A (protein, listed as Rattus norvegicus)
chain: B1 chain with I14Y, G72A, A104Y, V117Y
modifications: PEPTIDE (1)...(131) wild-type rat intestinal fatty acid binding protein
B8: 21I, 72A (protein, listed as Rattus norvegicus)
chain: B1 chain with I14Y, M21I, G72A, V117Y
modifications: PEPTIDE (1)...(131) wild-type rat intestinal fatty acid binding protein
B9: 82F, 72A (protein, listed as Rattus norvegicus)
chain: B1 chain with I14Y, G72A, W82F, V117Y
modifications: PEPTIDE (1)...(131) wild-type rat intestinal fatty acid binding protein
B10: 78Y, 72A (protein, listed as Rattus norvegicus)
chain: B1 chain with I14Y, G72A, L78Y, V117Y
modifications: PEPTIDE (1)...(131) wild-type rat intestinal fatty acid binding protein
B11: 55Y, 72A (protein, listed as Rattus norvegicus)
chain: B1 chain with I14Y, F55Y, G72A, V117Y
modifications: PEPTIDE (1)...(131) wild-type rat intestinal fatty acid binding protein
B12: 14L 72G 117V (protein, listed as Rattus norvegicus)
chain: B1 chain with I14L
modifications: PEPTIDE (1)...(131) wild-type rat intestinal fatty acid binding protein
B13: 49D, 72A (protein, listed as Rattus norvegicus)
chain: B1 chain with I14Y, V49D, G72A, V117Y
modifications: PEPTIDE (1)...(131) wild-type rat intestinal fatty acid binding protein
B14: 106D, 72A (protein, listed as Rattus norvegicus)
chain: B1 chain with I14Y, G72A, R106D, V117Y
modifications: PEPTIDE (1)...(131) wild-type rat intestinal fatty acid binding protein
B15: 11W, 72A (protein, listed as Rattus norvegicus)
chain: B1 chain with N11W, I14Y, G72A, V117Y
modifications: PEPTIDE (1)...(131) wild-type rat intestinal fatty acid binding protein

Test: Probe fluorescence ratio response to arachidonic acid relative to ADIFAB2
Type: binding
Details: arachidonic acid; response relative to ADIFAB2
How it was run: (§1)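 Each fatty acid's response was expressed relative to ADIFAB2, the rI-FABP-L72A probe, as ΔR/ΔRreference. ΔR is the change in the background-corrected two-wavelength intensity ratio R=Fλ1/Fλ2 from its analyte-free baseline R0. Emission was read near about 420-480 nm for unbound and about 495-580 nm for FFA-bound probe.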
In the case of B1, the “DR/DR AA” value is reported as 0.928. With B2 the “DR/DR AA” value was 0.433. For B3, the “DR/DR AA” value was 0.554. For B4, the “DR/DR AA” value was 0.787. For B5, the “DR/DR AA” value was 1.138. With B6 the “DR/DR AA” value was 1.174. With B7 the “DR/DR AA” value was 0.364. In the case of B8, the “DR/DR AA” value is reported as 0.531. In the case of B9, the “DR/DR AA” value is reported as 1.029. With B10 the “DR/DR AA” value was 1.172. With B11 the “DR/DR AA” value was 0.471. For B12, the “DR/DR AA” value was 0.873. With B13 the “DR/DR AA” value was 0.308. In the case of B14, the “DR/DR AA” value is reported as 0.502. For B15, the “DR/DR AA” value was 0.430.

Test: Probe fluorescence ratio response to linolenic acid relative to ADIFAB2
Type: binding
Details: response relative to ADIFAB2
How it was run: as §1
For B1, the “DR/DR LNA” value was 0.547. In the case of B2, the “DR/DR LNA” value is reported as 0.429. For B3, the “DR/DR LNA” value was 0.490. With B4 the “DR/DR LNA” value was 0.812. With B5 the “DR/DR LNA” value was 0.958. With B6 the “DR/DR LNA” value was 1.025. In the case of B7, the “DR/DR LNA” value is reported as 0.278. For B8, the “DR/DR LNA” value was 0.412. In the case of B9, the “DR/DR LNA” value is reported as 0.334. With B10 the “DR/DR LNA” value was 0.871. In the case of B11, the “DR/DR LNA” value is reported as 0.335. For B12, the “DR/DR LNA” value was 0.513. In the case of B13, the “DR/DR LNA” value is reported as 0.296. In the case of B14, the “DR/DR LNA” value is reported as 0.591. For B15, the “DR/DR LNA” value was 0.357.

Test: Probe fluorescence ratio response to linoleic acid relative to ADIFAB2
Type: binding
Details: response relative to ADIFAB2
How it was run: as §1
In the case of B1, the “DR/DR LA” value is reported as 0.622. For B2, the “DR/DR LA” value was 0.372. For B3, the “DR/DR LA” value was 0.485. With B4 the “DR/DR LA” value was 0.764. With B5 the “DR/DR LA” value was 0.874. In the case of B6, the “DR/DR LA” value is reported as 1.041. With B7 the “DR/DR LA” value was 0.265. For B8, the “DR/DR LA” value was 0.365. In the case of B9, the “DR/DR LA” value is reported as 0.422. For B10, the “DR/DR LA” value was 0.908. For B11, the “DR/DR LA” value was 0.324. In the case of B12, the “DR/DR LA” value is reported as 0.548. With B13 the “DR/DR LA” value was 0.324. For B14, the “DR/DR LA” value was 0.584. With B15 the “DR/DR LA” value was 0.344.

Test: Probe fluorescence ratio response to palmitic acid relative to ADIFAB2
Type: binding
Details: response relative to ADIFAB2
How it was run: as §1
With B1 the “DR/DR PA” value was 0.085. With B2 the “DR/DR PA” value was 0.190. For B3, the “DR/DR PA” value was 0.183. In the case of B4, the “DR/DR PA” value is reported as 0.231. With B5 the “DR/DR PA” value was 0.748. With B6 the “DR/DR PA” value was 0.928. In the case of B7, the “DR/DR PA” value is reported as 0.140. With B8 the “DR/DR PA” value was 0.162. In the case of B9, the “DR/DR PA” value is reported as 0.223. For B10, the “DR/DR PA” value was 0.520. For B11, the “DR/DR PA” value was 0.249. With B12 the “DR/DR PA” value was 0.055. In the case of B13, the “DR/DR PA” value is reported as 0.161. For B14, the “DR/DR PA” value was 0.147. In the case of B15, the “DR/DR PA” value is reported as 0.199.

Test: Probe fluorescence ratio response to oleic acid relative to ADIFAB2
Type: binding
Details: response relative to ADIFAB2
How it was run: as §1
With B1 the “DR/DR OA” value was 0.337. With B2 the “DR/DR OA” value was 0.350. With B3 the “DR/DR OA” value was 0.510. With B4 the “DR/DR OA” value was 0.395. In the case of B5, the “DR/DR OA” value is reported as 0.923. With B6 the “DR/DR OA” value was 1.057. In the case of B7, the “DR/DR OA” value is reported as 0.236. In the case of B8, the “DR/DR OA” value is reported as 0.310. For B9, the “DR/DR OA” value was 0.403. With B10 the “DR/DR OA” value was 0.845. For B11, the “DR/DR OA” value was 0.329. For B12, the “DR/DR OA” value was 0.297. In the case of B13, the “DR/DR OA” value is reported as 0.316. With B14 the “DR/DR OA” value was 0.423. In the case of B15, the “DR/DR OA” value is reported as 0.227.
